According to PMC7851689, “Expanding the Enzyme Repertoire for Sugar Nucleotide Epimerization: the CDP-Tyvelose 2-Epimerase from Thermodesulfatator atlanticus for Glucose/Mannose Interconversion” (Applied and Environmental Microbiology, 2021):

B1: TaCPa2E (Thermodesulfatator atlanticus) (protein)
chain: MKYLITGGCGFLGSNLASEVLRKREELIIFDNLYRIGSYENLEWLKQQGDFRFVHGDIRNREDIEKVIKEEKPDVIFHLAGQVAMTTSIENPRLDFEVNALGTFNLLDAVRKYSPESIIIYSSTNKVYGDLGWVRYEETETRYIAPDFPNGFPESIPLDFHSPYGCSKGAADQYMLDFCRIYGIKTVVFRHSSMYGGRQFATYDQGWIGWFCLKAIEIKKGLLKEPFTIHGNGKQVRDVLYADDMIELYFKTIENIEKAKGEAFNIGGGMENSLSLLELFSLLEKELDIKMRYKKLPWRESDQKIFVADIRKAQKLIGWQPKVSKYNGIQKMLEWIKKLV

Experiments:
[1] = biological target: CDP-tyvelose 2-epimerase-like enzyme from Thermodesulfatator atlanticus (TaCPa2E) (Thermodesulfatator atlanticus); test: SEC; gel filtration of the purified C-terminally His-tagged protein; conditions not shown (Fig. S3 and S4, supplemental material)
purified protein [2] = substrate: Nc1ccn([C@@H]2O[C@H](COP(=O)(O)OP(=O)(O)O[C@H]3O[C@H](CO)[C@@H](O)[C@H](O)[C@@H]3O)[C@@H](O)[C@H]2O)c(=O)n1; test: purified protein; details: pH 7.5; 60.0 °C
purified protein [3] = substrate: Nc1ccn([C@@H]2O[C@H](COP(=O)(O)OP(=O)(O)O[C@H]3O[C@H](CO)[C@@H](O)[C@H](O)[C@H]3O)[C@@H](O)[C@H]2O)c(=O)n1; test: purified protein; details: pH 7.5; 60.0 °C

Molecule | stoichiometry N [1] | Km (purified protein [2]) | Km (purified protein [3])
CDP-tyvelose 2-epimerase-like enzyme from Thermodesulfatator atlanticus (TaCPa2E) | 2 | – | –
B1 | – | 0.31 ± 0.01 mM | 0.32 ± 0.02 mM
